Earlier results, collected in paper PMC4567495.

Tests used:
[1] = target: cardiac troponin I switch peptide (Homo sapiens) (UniProt P19429); experiment: NMR
[2] = target: cardiac troponin I switch peptide 147-163 (Homo sapiens) (UniProt P19429); experiment: NMR

Chain of cardiac troponin I switch peptide (Homo sapiens) (P19429 2-210): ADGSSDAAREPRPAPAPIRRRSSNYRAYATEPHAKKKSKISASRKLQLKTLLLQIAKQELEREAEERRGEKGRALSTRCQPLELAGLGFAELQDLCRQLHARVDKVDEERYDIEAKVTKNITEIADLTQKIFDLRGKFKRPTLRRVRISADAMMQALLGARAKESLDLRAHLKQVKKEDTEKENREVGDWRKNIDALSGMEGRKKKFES

- Kd [1]: > 2000 µM
- Kd [2]: 150 µM
Substance: cardiac troponin C N-domain (from UniProt P63316)
